Measurements published in the supplement of paper PMC10567573.

B1: NCK2 (parent)
chain: YVERKNSLKKGSLVKNLKDTLGLG

Variants of: B1
Test: protein stability index of a GFP-peptide fusion (GPS, HEK-293T) (PSI 1-6); higher = more stable
Conditions: c terminus: a fixed tail appended
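Note: lentivirally expressed fusions sorted by FACS into six bins by GFP to DsRed ratio, PSI derived from sequencing read proportions per bin multiplied by bin number.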

Point of comparison: YVECKNSLKKGSLVKNLKDTLGLG, protein stability index 1.83. Against it:
- YVERKNSLEKGSLVKNLKDTLGLG — higher, 2.59
- YVERKNSLSKGSLVKNLKDTLGLG — higher, 2.84
- YVERKNSLGKGSLVKNLKDTLGLG — higher, 2.39
- YVERKNSLPKGSLVKNLKDTLGLG — higher, 2.05
- YVERKNSLRKGSLVKNLKDTLGLG — higher, 2.54
- YVERKNSLIKGSLVKNLKDTLGLG — higher, 2.51
- YVERKNSLKKGSLVKNLKDDLGLG — higher, 2.3
- YVERKNSLKKGSLVKNLKDNLGLG — higher, 2.62
- YVERKNSLKKGSLVKNLKDCLGLG — lower, 1.82
- YVERKNSLKKGSLVKNLKDILGLG — higher, 3.27
- YVERKNSLKKGSLGKNLKDTLGLG — higher, 2.04
- YVERKNSLKKGSLWKNLKDTLGLG — higher, 1.89
- YVERKNSLKKGSLSKNLKDTLGLG — higher, 2.07
- LVERKNSLKKGSLVKNLKDTLGLG — higher, 3.28
- EVERKNSLKKGSLVKNLKDTLGLG — higher, 4.06
- PVERKNSLKKGSLVKNLKDTLGLG — higher, 3.8
- KVERKNSLKKGSLVKNLKDTLGLG — higher, 3.86
- CVERKNSLKKGSLVKNLKDTLGLG — higher, 3.41
- YVERKNALKKGSLVKNLKDTLGLG — higher, 2.29
- YVERKNDLKKGSLVKNLKDTLGLG — higher, 2.57
- YVERKNHLKKGSLVKNLKDTLGLG — higher, 2.02
- YVERKNPLKKGSLVKNLKDTLGLG — lower, 1.82
- YVERKNKLKKGSLVKNLKDTLGLG — higher, 2.84
- YVERKNELKKGSLVKNLKDTLGLG — higher, 2.9
- YVERKNSKKKGSLVKNLKDTLGLG — higher, 2.47
- YVERKNSRKKGSLVKNLKDTLGLG — higher, 2.09
- YVERKNSMKKGSLVKNLKDTLGLG — higher, 2.57
- YVERKNSAKKGSLVKNLKDTLGLG — higher, 2.42
- YVPRKNSLKKGSLVKNLKDTLGLG — lower, 1.65
- YVFRKNSLKKGSLVKNLKDTLGLG — higher, 2.01
- YVSRKNSLKKGSLVKNLKDTLGLG — higher, 2.23
- YVKRKNSLKKGSLVKNLKDTLGLG — higher, 2.23
- YVLRKNSLKKGSLVKNLKDTLGLG — higher, 2.07
- YVTRKNSLKKGSLVKNLKDTLGLG — lower, 1.78
- YVNRKNSLKKGSLVKNLKDTLGLG — higher, 2.04
- YVERKNSLKKGWLVKNLKDTLGLG — higher, 2.17
- YVERKNSLKKGALVKNLKDTLGLG — higher, 2.22
- YVERKNSLKKGPLVKNLKDTLGLG — higher, 2.31
- YVERKRSLKKGSLVKNLKDTLGLG — higher, 2.25
- YVERKNSLKKGSLVKNLEDTLGLG — higher, 2.46
- YVERKNSLKKGSLVKNLWDTLGLG — lower, 1.8
- YVERKNSLKKGSLVKNLNDTLGLG — higher, 2.3
- YVERKNSLKKGSLVKNLADTLGLG — higher, 2.25
- YVERKNSLKKGSLVKNLHDTLGLG — higher, 2.6
- YVERKNSLKKGSLVKNLPDTLGLG — higher, 2.56
- YVERKNSLKKGSLVKNLKDTLGLL — lower, 1.28
- YIERKNSLKKGSLVKNLKDTLGLG — higher, 2.84
- YRERKNSLKKGSLVKNLKDTLGLG — higher, 3.41
- YFERKNSLKKGSLVKNLKDTLGLG — higher, 2.44
- YVERKNSLKKNSLVKNLKDTLGLG — higher, 2.4
- YVERKNSLKKRSLVKNLKDTLGLG — higher, 2.32
- YVERKNSLKKTSLVKNLKDTLGLG — higher, 2.06
- YVERKNSLKKESLVKNLKDTLGLG — higher, 2.72
- YVERKNSLKKGSLVKNLKDTLHLG — higher, 2.01
- YVERKNSLKKGSLVKNLKDTLDLG — higher, 2.21
- YVERKNSLKKGSLVKNLKDTLFLG — higher, 2.86
- YVERKNSLKKGSLVKNLKDTLYLG — higher, 2.33
- YVERKNSLKKGSLVKNLKDTRGLG — higher, 1.98
- YVERKNSLKKGSLVKNLKDTGGLG — higher, 2.49
- YVERKNSLKKGSLVMNLKDTLGLG — higher, 2.47
- YVERKNSLKKGSLVRNLKDTLGLG — lower, 1.81
- YVERKNSLKKGSLVANLKDTLGLG — higher, 2.09
- YVERKNSLKKGSLVENLKDTLGLG — higher, 2.81
- YVEVKNSLKKGSLVKNLKDTLGLG — lower, 1.78
- YVEPKNSLKKGSLVKNLKDTLGLG — higher, 2.2
- YVELKNSLKKGSLVKNLKDTLGLG — lower, 1.57
- YVEFKNSLKKGSLVKNLKDTLGLG — lower, 1.52
- YVEQKNSLKKGSLVKNLKDTLGLG — higher, 2.2
- YVEEKNSLKKGSLVKNLKDTLGLG — higher, 2.42
- YVERTNSLKKGSLVKNLKDTLGLG — higher, 2.02
- YVERYNSLKKGSLVKNLKDTLGLG — higher, 2.84
- YVERLNSLKKGSLVKNLKDTLGLG — lower, 1.51
- YVERQNSLKKGSLVKNLKDTLGLG — higher, 2.39
- YVERKNSLKKGSLVKNLKDTLGCG — higher, 2.53
- YVERKNSLKKGSQVKNLKDTLGLG — higher, 2.64
- YVERKNSLKKGSPVKNLKDTLGLG — higher, 3.05
- YVERKNSLKKGSKVKNLKDTLGLG — higher, 2.38
- YVERKNSLKKGSVVKNLKDTLGLG — higher, 2.64
- YVERKNSLKKGSCVKNLKDTLGLG — higher, 1.97
- YVERKNSLKKGSLVKNLKPTLGLG — higher, 1.95
- YVERKNSLKKGSLVKNLKCTLGLG — higher, 2.11
- YVERKNSLKKGSLVKNLKMTLGLG — higher, 2.6
- YVERKNSLKKGSLVKNMKDTLGLG — higher, 2.78
- YVERKNSLKKGSLVKNIKDTLGLG — higher, 2.43
- YVERKNSLKKGSLVKNWKDTLGLG — lower, 1.69
- YVERKNSLKIGSLVKNLKDTLGLG — higher, 1.89
- YVERKNSLKMGSLVKNLKDTLGLG — higher, 1.94
- YVERKNSLKSGSLVKNLKDTLGLG — higher, 2.31
- YVERKNSLKYGSLVKNLKDTLGLG — lower, 1.68
- YVERKNSLKAGSLVKNLKDTLGLG — higher, 2.11
- YVERKNSLKKGSLVKLLKDTLGLG — higher, 2.14
- YVERKNSLKKGSLVKDLKDTLGLG — higher, 2.29
- YVERKNSLKKGSLVKILKDTLGLG — higher, 2.18
